The text below walks through data of patent US20040052794.

In series [1] the target is RB18A D9 product (aa 436-1566) (Homo sapiens) (UniProt Q15648). Kind of series: pulldown. The conditions noted are these: 100 mM NaCl.
The test system of a further series is luciferase. Kind of series: pulldown. The note with it: 100 mM NaCl; negative control.
Series [2] deals with p53 wild-type (Homo sapiens) (UniProt P04637). Kind of series: pulldown. The note with it: 100 mM NaCl; positive control.
Series [3] relates to p53 wild-type His-tag (Homo sapiens). The conditions noted are these: strand annealing initial rate, 20 nM protein, 37 C.
Series [4] has as its target GST-RB18A-N2 (Homo sapiens) (UniProt Q15648). The note with it: strand annealing initial rate, 20 nM protein, 37 C.

Sequence of GST-RB18A-N2 (Homo sapiens) (Q15648 1249-1581): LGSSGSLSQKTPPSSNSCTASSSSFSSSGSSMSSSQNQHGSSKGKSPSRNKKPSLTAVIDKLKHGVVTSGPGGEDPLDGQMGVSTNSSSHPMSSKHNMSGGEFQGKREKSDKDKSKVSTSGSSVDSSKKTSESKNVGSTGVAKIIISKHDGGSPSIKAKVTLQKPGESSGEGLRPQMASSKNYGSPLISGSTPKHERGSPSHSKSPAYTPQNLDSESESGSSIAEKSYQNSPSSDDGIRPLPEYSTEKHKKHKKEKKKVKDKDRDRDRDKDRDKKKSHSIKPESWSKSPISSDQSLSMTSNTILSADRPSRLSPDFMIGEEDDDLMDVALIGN
Sequence of p53 wild-type (Homo sapiens) (P04637 whole entry): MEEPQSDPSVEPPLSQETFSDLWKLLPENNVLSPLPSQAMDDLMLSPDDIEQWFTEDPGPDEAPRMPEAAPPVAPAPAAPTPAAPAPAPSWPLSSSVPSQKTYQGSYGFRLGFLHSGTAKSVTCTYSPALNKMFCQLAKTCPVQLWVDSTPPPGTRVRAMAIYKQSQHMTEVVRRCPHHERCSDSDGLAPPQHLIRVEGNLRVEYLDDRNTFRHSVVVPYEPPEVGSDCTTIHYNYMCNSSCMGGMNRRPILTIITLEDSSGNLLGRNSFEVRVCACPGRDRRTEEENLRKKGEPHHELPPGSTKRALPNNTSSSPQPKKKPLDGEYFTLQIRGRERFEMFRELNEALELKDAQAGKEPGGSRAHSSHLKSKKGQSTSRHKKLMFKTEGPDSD
Sequence of RB18A D9 product (aa 436-1566) (Homo sapiens) (Q15648 other isoform, or with tags, fused parts or gaps): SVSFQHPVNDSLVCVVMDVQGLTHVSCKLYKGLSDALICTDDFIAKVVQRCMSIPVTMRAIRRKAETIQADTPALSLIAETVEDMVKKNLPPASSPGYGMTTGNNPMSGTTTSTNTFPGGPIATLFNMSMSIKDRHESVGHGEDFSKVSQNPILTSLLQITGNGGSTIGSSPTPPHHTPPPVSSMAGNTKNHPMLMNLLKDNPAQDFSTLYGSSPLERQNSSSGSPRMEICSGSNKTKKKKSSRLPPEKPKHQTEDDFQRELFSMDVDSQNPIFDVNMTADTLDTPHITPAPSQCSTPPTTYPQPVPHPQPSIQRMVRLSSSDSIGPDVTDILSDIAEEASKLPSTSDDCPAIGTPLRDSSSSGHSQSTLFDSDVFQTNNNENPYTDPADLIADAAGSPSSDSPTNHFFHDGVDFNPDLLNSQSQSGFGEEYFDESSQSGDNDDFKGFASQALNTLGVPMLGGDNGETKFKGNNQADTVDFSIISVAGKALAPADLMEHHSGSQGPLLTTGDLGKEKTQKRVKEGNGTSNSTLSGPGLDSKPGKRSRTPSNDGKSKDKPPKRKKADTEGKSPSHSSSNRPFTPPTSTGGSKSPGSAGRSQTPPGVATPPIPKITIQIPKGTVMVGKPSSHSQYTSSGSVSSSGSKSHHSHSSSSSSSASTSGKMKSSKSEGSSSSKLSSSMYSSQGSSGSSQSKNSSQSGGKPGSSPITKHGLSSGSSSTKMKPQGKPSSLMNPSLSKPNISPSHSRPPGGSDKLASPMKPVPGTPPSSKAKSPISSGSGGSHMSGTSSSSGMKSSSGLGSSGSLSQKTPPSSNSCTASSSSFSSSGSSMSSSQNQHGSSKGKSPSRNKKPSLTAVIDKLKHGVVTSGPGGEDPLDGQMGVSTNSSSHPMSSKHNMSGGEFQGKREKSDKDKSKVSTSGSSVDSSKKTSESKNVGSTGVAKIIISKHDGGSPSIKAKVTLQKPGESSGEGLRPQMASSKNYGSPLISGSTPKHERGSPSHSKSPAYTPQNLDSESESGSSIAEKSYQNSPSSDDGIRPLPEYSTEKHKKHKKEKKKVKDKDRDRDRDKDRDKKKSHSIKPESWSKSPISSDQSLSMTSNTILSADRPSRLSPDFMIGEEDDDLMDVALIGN

As for double-stranded DNA-cellulose, the binding (% of input retained) in series [1] is 20; in the series on luciferase, below 0.1; in series [2] it was 20.

For “phiX174 HaeIII 194 bp fragment, heat denatured”, the activity was 5.9 %/min in series [3] and 14 %/min in series [4].
